Assay results reported in patent US20210113678A1 (ENTEROME S A, published 2021).

Assays:
[1] = target: T1, HLA-A*0201 molecule on human T2 cells (human); experiment: T2 cells expressing HLA-A*0201, anti-HLA-A2-PE, FACS
T1 construct: read out with anti-HLA-A2 antibody BB7.2-PE; also called HLA-A2

[2] = target: T1, HLA-A*0201 molecule on human T2 cells; experiment: as above; remark: listed apart in the source

Row | Binder | mean relative fluorescence intensity at 1.5625 µM peptide [1] | mean relative fluorescence intensity at 3.125 µM peptide [1] | mean relative fluorescence intensity at 6.25 µM peptide [1] | mean relative fluorescence intensity at 25 µM peptide [1] | mean relative fluorescence intensity at 50 µM peptide [1] | mean relative fluorescence intensity at 100 µM peptide [1] | Concentration of peptide that induces 20% of HLA-A2 expression [2] [µM] | In vitro binding affinity (relative to reference peptide HIV pol 589-597) [2]
1 | ILDEAYVRV [EGFR-B] | 12.7 % of HIV peptide | 22.7 % of HIV peptide | 29.2 % of HIV peptide | 53.2 % of HIV peptide | 66.7 % of HIV peptide | 70.3 % of HIV peptide | 3.1 | 0.2
2 | FMVEDETVL (Fragment of human EZH2) [EZH2-H] | 0 % of HIV peptide | 0.7 % of HIV peptide | 10.6 % of HIV peptide | 40.7 % of HIV peptide | 66 % of HIV peptide | 95.4 % of HIV peptide | 13.3 | 1.1
3 | LMDLSTTPL (Fragment of human FOXM1) [FOXM1-H2] | 5.3 % of HIV peptide | 0.9 % of HIV peptide | 19.7 % of HIV peptide | 65.4 % of HIV peptide | 62.5 % of HIV peptide | 77.6 % of HIV peptide | 12.6 | 2.5
4 | GLLGEFLQI (also called B1RC5-B3) [BIRC5-B3] | 9.4 % of HIV peptide | 8.9 % of HIV peptide | – | 20.9 % of HIV peptide | 29.8 % of HIV peptide | 35 % of HIV peptide | 22.9 | 7
5 | RLSSYLVEI [FOXM1-B] | 0 % of HIV peptide | 0 % of HIV peptide | 0 % of HIV peptide | 7.6 % of HIV peptide | 21.3 % of HIV peptide | 47.5 % of HIV peptide | 46.7 | 4.6
6 | SMFRVLIGT (Fragment of human EZH2) [EZH2-H2] | 0 % of HIV peptide | 0 % of HIV peptide | 0 % of HIV peptide | 13.3 % of HIV peptide | – | 78.2 % of HIV peptide | 39.2 | 7.8
7 | YTLGEFLYI [BIRC5-B2] | – | 6.6 % of HIV peptide | 9 % of HIV peptide | 29.6 % of HIV peptide | 54.4 % of HIV peptide | 58 % of HIV peptide | 14.7 | 4.5
8 | RVSSYLVPI (Fragment of human FOXM1) [FOXM1-H] | 0 % of HIV peptide | 0 % of HIV peptide | 0 % of HIV peptide | 10.5 % of HIV peptide | 30.7 % of HIV peptide | 83.8 % of HIV peptide | 37.6 | 3.7
9 | FLDSLGFST [TYMS-H2] | 1.6 % of HIV peptide | 4.5 % of HIV peptide | 6.1 % of HIV peptide | 32.5 % of HIV peptide | 37.2 % of HIV peptide | 50.6 % of HIV peptide | 9.5 | 0.8
10 | FLDSLGFSL [TYMS-B2] | 10.7 % of HIV peptide | 21.5 % of HIV peptide | 27.5 % of HIV peptide | 61.1 % of HIV peptide | 62 % of HIV peptide | 71.3 % of HIV peptide | 2.7 | 0.2
11 | WLPFGFILI (Fragment of human IL13RA2) [IL13RA2-H] | 3 % of HIV peptide | 3.7 % of HIV peptide | 9.6 % of HIV peptide | 11.2 % of HIV peptide | 14.2 % of HIV peptide | 26.5 % of HIV peptide | – | –
12 | YLLSAALTI [CHI3L1B3] | 2.5 % of HIV peptide | 14.3 % of HIV peptide | 30.2 % of HIV peptide | 36.7 % of HIV peptide | 108 % of HIV peptide | 76.9 % of HIV peptide | 8.6 | 2.2
13 | VLEELLWFI (Fragment of human TYMS) [TYMS-H] | 8.6 % of HIV peptide | 15.3 % of HIV peptide | 26.6 % of HIV peptide | 38.1 % of HIV peptide | 40.4 % of HIV peptide | 50.2 % of HIV peptide | 4.1 | 0.3
14 | LMDLSTTEV [FOXM1-B2] | 7.2 % of HIV peptide | 12.7 % of HIV peptide | 33.5 % of HIV peptide | 98.2 % of HIV peptide | 91.5 % of HIV peptide | 105 % of HIV peptide | 6.7 | 1.3
15 | AVFRVLIPV [EZH2-B2] | 0 % of HIV peptide | 0 % of HIV peptide | 0.5 % of HIV peptide | 74.8 % of HIV peptide | – | 112 % of HIV peptide | 8.3 | 1.7
16 | SMEELLWFV [TYMS-B] | 15.9 % of HIV peptide | 30.4 % of HIV peptide | 36 % of HIV peptide | 49.3 % of HIV peptide | 65.7 % of HIV peptide | 80.9 % of HIV peptide | 1.1 | 0.1
17 | LLLSAALSA (Fragment of human CHI3L1) [CHI3L1H] | -1.9 % of HIV peptide | 1 % of HIV peptide | 4.4 % of HIV peptide | 4.9 % of HIV peptide | 14.5 % of HIV peptide | 11.2 % of HIV peptide | – | –
18 | LLLSAALSV [CHI3L1B] | 13.5 % of HIV peptide | 23.9 % of HIV peptide | 44 % of HIV peptide | 45.3 % of HIV peptide | 85 % of HIV peptide | 58.9 % of HIV peptide | 3.6 | 0.9
